Like-named read-outs stand apart in the source and are kept apart here.
Columns and labels:
[1] = molecular target: T1, CW6W36 (rhHLA-Cw6/ADAMTSL5) (human); test: SPR Biacore 8K, captured mAb; Acceptable fit
T1 construct: also called CW6W36.002; rHLA-Cw6/ADAMTSL5
Description: (§1) To further characterize the ability of the antibodies to differentiate between class I MHC molecules.

CW6W51.001 = test: SPR Biacore 8K, captured mAb; Acceptable fit
Description: as §1

CW6W56.ECO.PP.001 = test: SPR Biacore 8K, captured mAb; Acceptable fit
Description: as §1

CW6W53.001 = test: SPR Biacore 8K, captured mAb; Acceptable fit
Description: as §1

CW6W47.001 = test: SPR Biacore 8K, captured mAb; Acceptable fit
Description: as §1

CW6W35.001 = test: SPR Biacore 8K, captured mAb; Acceptable fit
Description: as §1

CW6W32 (rhHLA-Cw6/TRAT) [2] = molecular target: T2, CW6W32 (rhHLA-Cw6/TRAT) (human); test: SPR ProteOn XPR36, captured mAb; valid kinetic fit;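 also: Anti-HLA-Cw6 mAbs captured at 100–200 RU, antigen flowed in PBST, 180 s association and 900 s dissociation, double-referenced sensorgrams globally fit to a 1:1 Langmuir model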
T2 construct: also called CW6W32.009; rHLA-Cw6/TRAT
Protocol: (§2) Anti-HLA-Cw6 mAbs were captured at ligand densities ranging from 100 to 200 response units. […] All analyses were conducted in PBST at 100 μL/min flow rate with association and dissociation times of 180 and 900 seconds, respectively. […] Analyte raw data was double referenced by subtraction of the blank surface response at “interspots” (to correct for refractive index changes and any non-specific interactions with the chip surface) and of the buffer blank response (to correct for any baseline drift resulting from mAb dissociation over time). Referenced data were globally fit to a 1:1 simple Langmuir binding model. Kinetic parameters were calculated for each mAb/antigen combination or interaction using Bio-Rad ProteOn Manager software (version 3.1.0.6) with parameter (kon, koff, Rmax) scope and type set to “Grouped” and “Fitted,” respectively.

[3] = molecular target: T1, CW6W36 (rhHLA-Cw6/ADAMTSL5); test: SPR ProteOn XPR36, captured mAb; valid kinetic fit;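 also: Anti-HLA-Cw6 mAbs captured at 100–200 RU, antigen flowed in PBST, 180 s association and 900 s dissociation, double-referenced sensorgrams globally fit to a 1:1 Langmuir model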
Protocol: as §2

[4] = molecular target: T3, CW6W3.ECO.PP.002/.003 (rhHLA-Cw6/ARF) (human); test: SPR ProteOn XPR36, captured mAb; valid kinetic fit;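 also: Anti-HLA-Cw6 mAbs captured at 100–200 RU, antigen flowed in PBST, 180 s association and 900 s dissociation, double-referenced sensorgrams globally fit to a 1:1 Langmuir model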
T3 construct: also called rhHLA-Cw6/ARFN; rHLA-Cw6/ARFN
Protocol: as §2

CW6W32 (rhHLA-Cw6/TRAT) [5] = molecular target: T2, CW6W32 (rhHLA-Cw6/TRAT); test: SPR Biacore 8K, captured mAb; Kinetic fit not valid
CW6W55.ECO.PP.002 [6] = test: as above
CW6W54.001 = test: as above
[7] = molecular target: T4, rhHLA-B7 stably expressed on K562 cells (K562-rhHLA-B7) (human, UniProt P01889 25-362); test: MSD cell binding
T4 construct: also called K562-rehHLA-B7

[8] = molecular target: T5, rhHLA-Cw6 stably expressed on K562 cells (K562-rhHLA-Cw6) (human, UniProt P10321 25-366); test: MSD cell binding
T5 construct: also called K562-HLA-Cw6
Protocol: (§3) The blocking buffer was aspirated, 20 μl of prepared test antibodies were added to appropriate wells, and the plate was incubated further for 1 hour at RT. The plate was washed three times with 80 μl PBS, and then each well received 20 μl/well of a 1 μg/ml SulfoTag labeled secondary detection antibody solution. After a 1-hour incubation at RT, the plate was washed three times with 80 μl PBS, and 50 μl/well of a 1× MSD Read Buffer T (surfactant free) (MSD #R92TD-1) was added and the plate was read on an MSD Sector 600 Plate Reader.
T5 MHC heavy: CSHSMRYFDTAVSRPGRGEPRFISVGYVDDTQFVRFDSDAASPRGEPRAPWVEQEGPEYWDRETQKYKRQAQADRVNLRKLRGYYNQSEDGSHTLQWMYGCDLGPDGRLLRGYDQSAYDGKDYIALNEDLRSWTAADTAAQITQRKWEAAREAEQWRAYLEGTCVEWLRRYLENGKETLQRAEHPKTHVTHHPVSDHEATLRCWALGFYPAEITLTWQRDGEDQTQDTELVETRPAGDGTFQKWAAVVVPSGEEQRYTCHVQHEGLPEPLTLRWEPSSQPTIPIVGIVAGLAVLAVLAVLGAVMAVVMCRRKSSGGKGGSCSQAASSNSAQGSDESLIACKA

[9] = molecular target: T4, rhHLA-B7 stably expressed on K562 cells …; test: MSD cell binding; remark: listed apart in the source
Protocol: as §3

CW6W55.ECO.PP.002 [10] = test: SPR Biacore 8K, captured mAb; Acceptable fit
Description: as §1
A24_A*24:02 [11] = molecular target: T6, A24_A*24:02 (human, UniProt A*24:02); test: LABScreen beads
T6 construct: on LABScreen bead; also called HLA-A*24:02 (LABScreen class I bead)
T6 heavy chain: not shown

A24_A*24:02 [12] = molecular target: T6, A24_A*24:02; test: LABScreen beads

T4 sequence (P01889 25-362 limits assumed): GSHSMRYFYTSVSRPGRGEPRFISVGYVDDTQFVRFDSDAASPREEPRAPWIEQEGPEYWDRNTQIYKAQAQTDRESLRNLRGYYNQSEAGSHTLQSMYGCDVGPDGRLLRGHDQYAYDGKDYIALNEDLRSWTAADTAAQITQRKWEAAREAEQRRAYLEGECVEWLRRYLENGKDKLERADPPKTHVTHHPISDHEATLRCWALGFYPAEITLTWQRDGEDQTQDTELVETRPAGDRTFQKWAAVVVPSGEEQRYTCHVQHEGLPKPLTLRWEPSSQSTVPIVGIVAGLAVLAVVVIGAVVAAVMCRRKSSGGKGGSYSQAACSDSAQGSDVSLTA

Binder | Kd (CW6W56.ECO.PP.001) | koff (CW6W56.ECO.PP.001) | kon (CW6W56.ECO.PP.001) | Kd (CW6W32 (rhHLA-Cw6/TRAT) [2]) | koff (CW6W32 (rhHLA-Cw6/TRAT) [2]) | kon (CW6W32 (rhHLA-Cw6/TRAT) [2]) | Kd [3] | koff [3] | kon [3] | Kd [4] | koff [4] | kon [4] | Kd (CW6W55.ECO.PP.002 [6]) | Kd (CW6W54.001) | koff (CW6W54.001) | kon (CW6W54.001) | binding result [7] | HLA-Cw6 Selective (K562-rhHLA-Cw6 specific/K562-rhHLA-B7 specific) [8] | HLA-Cw6 Specific (K562-rhHLA-Cw6/K562 Parent binding signal) [8] | HLA-B7 Specific (K562-rhHLA-B7/K562 Parent binding signal) [9] | other results
CW6B233 (antibody, V domains shown, also called CW6B233.001; CW6M233 (DNA ID)) VH: QVQLQESGPGLVKPSETLSLTCTVSGNSIRSYYWSWIRQPAGKGLEWIGRIYISGNTNYNPSLKSRVTMSIDTSKNQFSLKLSSVTAADTAVYYCARLSGIDAFDIWGQGTMVTVSS VL: DIQMTQSPSSLSASVGDRVTITCQASQDITNYLNWYQQKPGKAPKLLIYDASNLETGVPSRFSGSGSGTDFTFTISSLQPEDFATYYCQQYDNLPITFGQGTRLEIK | 1.26 nM | 0.00107 s⁻¹ | 849000 M⁻¹ s⁻¹ | 1.55 nM | 0.00234 s⁻¹ | 1.51e+06 M⁻¹ s⁻¹ | 1 nM | 0.00355 s⁻¹ | 3.56e+06 M⁻¹ s⁻¹ | 0.29 nM | 0.000293 s⁻¹ | 1.02e+06 M⁻¹ s⁻¹ | 7.3 nM | 0.798 nM | 0.000484 s⁻¹ | 607000 M⁻¹ s⁻¹ | no binding | 44 ratio | 36 ratio | 0.8 ratio | Kd [1]: 3.82 nM; koff [1]: 0.00433 s⁻¹; kon [1]: 1.14e+06 M⁻¹ s⁻¹; Kd (CW6W51.001): 1.18 nM; koff (CW6W51.001): 0.000514 s⁻¹; kon (CW6W51.001): 437000 M⁻¹ s⁻¹; Kd (CW6W53.001): 2.09 nM; koff (CW6W53.001): 0.00073 s⁻¹; kon (CW6W53.001): 350000 M⁻¹ s⁻¹; Kd (CW6W47.001): 9.63 nM; koff (CW6W47.001): 0.00801 s⁻¹; kon (CW6W47.001): 832000 M⁻¹ s⁻¹; Kd (CW6W35.001): 3.59 nM; koff (CW6W35.001): 0.000758 s⁻¹; kon (CW6W35.001): 211000 M⁻¹ s⁻¹; Kd (CW6W32 (rhHLA-Cw6/TRAT) [5]): 3.73 nM; koff (CW6W32 (rhHLA-Cw6/TRAT) [5]): 0.00203 s⁻¹; kon (CW6W32 (rhHLA-Cw6/TRAT) [5]): 544000 M⁻¹ s⁻¹; koff (CW6W55.ECO.PP.002 [6]): 1.22 s⁻¹; kon (CW6W55.ECO.PP.002 [6]): 1.67e+08 M⁻¹ s⁻¹
CW6B228 (antibody, V domains shown, also called CW6B228.001; CW6M228 (DNA ID)) VH: QVQLQESGPGLVKPSETLSLTCTVSGNSIRSYYWSWIRQPAGKGLEWIGRIYISGNTNYNPSLKSRVTMSIDTSKNQFSLKLSSVTAADTAVYYCARLSGIDAFDIWGQGTMVTVSS VL: DIQMTQSPSSLSASVGDRVTITCQASQDINNYLNWYQQKPGKAPKLLIYDASSLETGVPSRFSGSGSGTDFTFTISSLQPEDFATYYCQQYDDLPITFGQGTRLEIK | – | – | – | 0.09 nM | 0.000534 s⁻¹ | 5.98e+06 M⁻¹ s⁻¹ | 0.05 nM | 0.000732 s⁻¹ | 1.52e+07 M⁻¹ s⁻¹ | 0.04 nM | 0.000178 s⁻¹ | 4.89e+06 M⁻¹ s⁻¹ | – | – | – | – | no binding | 78 ratio | 75 ratio | 1 ratio | –
CW6B230 (antibody, V domains shown, also called CW6B230.001; CW6M230 (DNA ID)) VH: QVQLQESGPGLVKPSETLSLTCTVSGNSISNYYWSWIRQPAGKGLEWIGRIYITGNTNYNPSLKSRVTMSLDTSKNQFSLKLSSVTAADTAVYYCARLSGIDAFDIWGQGTMVTVSS VL: DIQMTQSPSTLSASVGDRVTFTCQASQDITKYLNWYQQKPGKAPKLLIYDASNLETGVPSRFSGSGSGTDFTFTISSLQPEDFATYYCQQYDDLPITFGQGTRLEIK | 2.07 nM | 0.00295 s⁻¹ | 1.42e+06 M⁻¹ s⁻¹ | – | – | – | – | – | – | – | – | – | – | 1.4 nM | 0.000655 s⁻¹ | 467000 M⁻¹ s⁻¹ | – | – | – | – | Kd (CW6W55.ECO.PP.002 [10]): 8.9 nM; koff (CW6W55.ECO.PP.002 [10]): 0.00655 s⁻¹; kon (CW6W55.ECO.PP.002 [10]): 737000 M⁻¹ s⁻¹; binding result (A24_A*24:02 [11]): no binding (tested: 10 µg/ml)
CW6B229 (antibody, V domains shown, also called CW6B229.001; CW6M229 (DNA ID)) VH: QVQLQESGPGLVKPSETLSLTCTVSGNSIRSYYWSWIRQPAGKGLEWIGRIYISGNTNYNPSLKSRVTMSIDTSKNQFSLKLSSVTAADTAVFYCARLSGIDAFDIWGQGTMVTVSS VL: DIQMTQSPSSLSASVGDRVTITCQASQDISNYLNWYQQKPGKAPKLLIYDASNLETGVPSRFSGSGSGTDFTFTISSLQPEDFATYYCQQYDNLPITFGQGTRLEIK | 1.23 nM | 0.00127 s⁻¹ | 1.03e+06 M⁻¹ s⁻¹ | – | – | – | – | – | – | – | – | – | 7.1 nM | 0.673 nM | 0.000465 s⁻¹ | 691000 M⁻¹ s⁻¹ | – | – | – | – | binding result (A24_A*24:02 [12]): no binding (tested: 10 µg/ml)
